The results in this text go back to patent US20220177587A1, “METHODS AND USES OF VARIANT CD80 FUSION PROTEINS AND RELATED CONSTRUCTS” (Alpine Immune Sciences, Inc., priority 2018, published 2022).

In assay [1] the target is CD28 (human) (UniProt P10747). Briefly: flow cytometry, Jurkat cells (CD28). A general note: In flow cytometry, cells or beads pass a laser one at a time.
Assay [2] has as its target human CTLA-4 (human) (UniProt P16410). In words: flow cytometry, CHO cells stably expressing CTLA4.
The target in assay [3] is PD-L1 (human) (UniProt Q9NZQ7). In words: flow cytometry, MFI on PD-L1 cells over MFI on CD28 cells.
The target of assay [4] is PD-L1 (human) (UniProt Q9NZQ7). Briefly: flow cytometry, CHO cells stably expressing PD-L1.
For assay [5], the target named is CD28 (human) (UniProt P10747). In words: flow cytometry, Jurkat/IL2 reporter cells (CD28).
Assay [6] addresses PD-L1 (human) (UniProt Q9NZQ7). Briefly: flow cytometry, CHO cells expressing huPD-L1.
Assay [7] concerns the target human CTLA-4 (human) (UniProt P16410). Briefly: flow cytometry, CHO cells expressing huCTLA-4.

Chain of human CTLA-4 (human) (P16410 36-223): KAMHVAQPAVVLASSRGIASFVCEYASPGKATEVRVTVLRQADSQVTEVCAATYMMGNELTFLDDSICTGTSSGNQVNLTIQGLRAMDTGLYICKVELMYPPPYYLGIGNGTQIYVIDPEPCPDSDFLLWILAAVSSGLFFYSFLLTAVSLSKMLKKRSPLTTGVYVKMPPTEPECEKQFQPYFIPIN
Chain of PD-L1 (human) (Q9NZQ7 19-290): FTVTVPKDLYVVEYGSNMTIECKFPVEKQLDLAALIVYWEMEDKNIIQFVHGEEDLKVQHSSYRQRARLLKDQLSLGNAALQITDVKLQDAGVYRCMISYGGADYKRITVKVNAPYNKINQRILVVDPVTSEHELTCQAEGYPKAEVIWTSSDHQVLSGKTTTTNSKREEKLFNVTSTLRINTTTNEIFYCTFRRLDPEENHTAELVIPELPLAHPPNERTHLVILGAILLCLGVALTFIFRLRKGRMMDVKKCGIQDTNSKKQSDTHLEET

For “variant CD80 IgV-Fc H18Y/A26E/M47L/V68M/D90G (Fc fusion)”, the Fold change to WT CD80 in assay [1] came to 0.7 fold; in assay [2], 21.1 fold; in assay [4] it was 541 fold. The MFI at 33.3 nM in assay [1] was 32 MFI; in assay [2], 28600 MFI; in assay [4], 23600 MFI. For the same substance, in assay [3], the Ratio of PDL1:CD28 came out at 737.

In the case of “variant CD80 IgV-Fc H18Y/A26E/M47L/V68M/A71G (Fc fusion)”, the Fold change to WT CD80 came to 12.4 fold in assay [1], 16 fold in assay [2] and 682 fold in assay [4]. The figures for the MFI at 33.3 nM in assay [1], in assay [2] and in assay [4] were 544 MFI, 21700 MFI and 29700 MFI, respectively. For the same substance, the Ratio of PDL1:CD28 in assay [3] was 54.7.

For “variant CD80 IgV-Fc V68M/L85Q (Fc fusion)”, the MFI at 33.3 nM amounted to 91.7 MFI in assay [5], 347 MFI in assay [6] and 3290 MFI in assay [7].

As to “variant CD80 IgV-Fc M47V/N48K (Fc fusion)”, the MFI at 33.3 nM worked out at 413 MFI in assay [5], 3080 MFI in assay [6] and 44600 MFI in assay [7].

Turning to “variant CD80 IgV-Fc H18Y/E35D/M47L/V68M/A71G (Fc fusion)”, the Fold change to WT CD80 was determined as 21.1 fold in assay [1], 17.4 fold in assay [2] and 697 fold in assay [4]. Moreover, the MFI at 33.3 nM in assay [1] was found to be 928 MFI; in assay [2] it was 23700 MFI; in assay [4] it was 30400 MFI. Also, the Ratio of PDL1:CD28 in assay [3] stood at 32.7.

For the substance “variant CD80 IgV-Fc A26E/E35D/M47L/V68M/A71G/D90G (Fc fusion)”, the results for the Fold change to WT CD80 in assay [1], in assay [2] and in assay [4] were 50.4 fold, 16 fold and 693 fold, respectively. Further, the MFI at 33.3 nM is 2210 MFI in assay [1], 21700 MFI in assay [2] and 30200 MFI in assay [4]. In addition, the Ratio of PDL1:CD28 in assay [3] is 13.7.

For “variant CD80 IgV-Fc E35D/M47L/V68M/L85Q (Fc fusion)”, the MFI at 33.3 nM in assay [5] was 159 MFI; in assay [6] it was 15300 MFI; in assay [7], 28100 MFI.

As to “variant CD80 IgV-Fc H18Y/A26E/M47L/A71G/D90G (Fc fusion)”, the Fold change to WT CD80 amounted to 46.6 fold in assay [1], 18.7 fold in assay [2] and 407 fold in assay [4]. Besides, the MFI at 33.3 nM in assay [1] came to 2050 MFI; in assay [2], 25400 MFI; in assay [4], 17700 MFI. Also, in assay [3], the Ratio of PDL1:CD28 was determined as 8.7.

Turning to “variant CD80 IgV-Fc H18Y/E35D/M47L/V68M/A71G/D90G (Fc fusion)”, the figures for the Fold change to WT CD80 in assay [1], in assay [2] and in assay [4] were 63.6 fold, 14.6 fold and 687 fold, respectively. The results for the MFI at 33.3 nM in assay [1], in assay [2] and in assay [4] were 2790 MFI, 19900 MFI and 29900 MFI, respectively. Also, in assay [3], the Ratio of PDL1:CD28 was found to be 10.7.

Turning to “variant CD80 IgV-Fc N48K/V68M (Fc fusion)”, the MFI at 33.3 nM stood at 118 MFI in assay [5], 754 MFI in assay [6] and 2340 MFI in assay [7].

For “variant CD80 IgV-Fc M47V/V68M/K89N (Fc fusion)”, the MFI at 33.3 nM came to 1320 MFI in assay [5], 11800 MFI in assay [6] and 24800 MFI in assay [7].

As to “variant CD80 IgV-Fc M47V/K89N (Fc fusion)”, the MFI at 33.3 nM in assay [5] is 197 MFI; in assay [6] it was 622 MFI; in assay [7] it was 32400 MFI.

On to “variant CD80 IgV-Fc H18Y/A26E/E35D/V68M/D90G (Fc fusion)”, for which the figures for the Fold change to WT CD80 in assay [1], in assay [2] and in assay [4] were 58.9 fold, 14.2 fold and 532 fold, respectively. In addition, the MFI at 33.3 nM in assay [1] was 2580 MFI; in assay [2], 19300 MFI; in assay [4] it was 23200 MFI. Further, in assay [3], the Ratio of PDL1:CD28 stood at 9.
